# According to article PMC6356355:
# Target: Toll-like receptor 9 (rat (endogenous in AR4-2J))
substance,measurement,value
Recombinant histone H4 (from UniProt P62805 1-103) (natural protein),blockade of H4 (5 mgL^-1)-induced calcium oscillations in AR4-2J cells by simultaneous perfusion of TLR9 antagonist ODN2088 (5 uM),88%
